Test results taken from the supplement of paper PMC12783771.
± gives the standard deviation of the averaged measurements.

B1: library; numbered along this chain (parent)
chain: MNIQIGELAKRTACPVVTIRFYEQEGLLPPPGRSRGNFRLYGEEHVERLQFIRHCRSLDMPLSDVRTLLSYRKRPDQDCGEVNMLLDEHIRQVESRIGALLELKHHLVELREACSGARPAQSCGILQGLSDCVCDTRGTTAHPSD

How the values were obtained:
[1] = variants of: B1; assay: sfGFP reporter fluorescence (15 h) (µM FITC); higher = higher leak; settings: library round: Round 1; ligand: none
Experimental: (§1)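 Cell-free biosensing: 1 µL Echo-assembled CFE reactions with linear PbrR variant templates (5 nM) and pPbrR-sfGFP reporter, with 1 µM Pb, 30 µM Zn or no ligand; endpoint sfGFP fluorescence after 15 h at 30 °C calibrated as µM FITC. Round 1 ML-predicted PbrR mutants; 3 biological replicates.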

[2] = variants of: B1; assay: sfGFP reporter fluorescence (15 h) (µM FITC); higher = stronger transcriptional activation; settings: library round: Round 1
Experimental: as §1

| Variant | sfGFP reporter fluorescence [1] | sfGFP reporter fluorescence ([2]; ligand: 1 µM Pb) | sfGFP reporter fluorescence ([2]; ligand: 30 µM Zn) |
| --- | --- | --- | --- |
| N83T E94R | 0.0643 ± 0.0013 | 0.0792 ± 0.002 | 0.128 ± 0.0019 |
| N83T E109A P143Y | 0.0646 ± 0.0022 | 0.0776 ± 0.0092 | 0.179 ± 0.017 |
| N83T E109F | 0.0638 ± 0.0013 | 0.0862 ± 0.0036 | 0.315 ± 0.0065 |
| N83T E109L P143R | 0.0641 ± 0.00073 | 0.0812 ± 0.0015 | 0.183 ± 0.0048 |
| N83T E112A | 0.0608 ± 0.0013 | 0.0855 ± 0.0018 | 0.194 ± 0.022 |
| N83T E112F | 0.0601 ± 0.0026 | 0.0667 ± 0.0032 | 0.0853 ± 0.0022 |
| N83T E112H | 0.0643 ± 0.0027 | 0.0795 ± 0.0037 | 0.112 ± 0.0026 |
| N83T E112L | 0.0619 ± 0.0034 | 0.0766 ± 0.0039 | 0.125 ± 0.0069 |
| N83T E112M | 0.06267 ± 0.00037 | 0.0849 ± 0.0046 | 0.162 ± 0.0094 |
| N83T G128I | 0.059 ± 0.00064 | 0.133 ± 0.011 | 0.387 ± 0.038 |
| N83T H89Q | 0.0608 ± 0.0025 | 0.0955 ± 0.011 | 0.258 ± 0.013 |
| N83T I90S | 0.0629 ± 0.0014 | 0.0715 ± 0.0022 | 0.109 ± 0.0024 |
| N83T I97C | 0.0623 ± 0.0016 | 0.063 ± 0.0038 | 0.109 ± 0.0073 |
| N83T I97G | 0.06365 ± 0.00056 | 0.0646 ± 0.0051 | 0.0965 ± 0.0021 |
| N83T I97H | 0.0607 ± 0.0023 | 0.0635 ± 0.00085 | 0.0778 ± 0.0044 |
| N83T I97N | 0.06206 ± 0.00056 | 0.064 ± 0.0017 | 0.0862 ± 0.0011 |
| N83T I97S K104G | 0.0612 ± 0.0026 | 0.076 ± 0.0097 | 0.102 ± 0.0094 |
| N83T I97T | 0.06157 ± 0.00037 | 0.0658 ± 0.0032 | 0.102 ± 0.0039 |
| N83T K104R D135K | 0.0682 ± 0.00097 | 0.0845 ± 0.0083 | 0.149 ± 0.0056 |
| N83T K104V | 0.0623 ± 0.0026 | 0.113 ± 0.0044 | 0.249 ± 0.025 |
| N83T K104V L107I | 0.0623 ± 0.0016 | 0.0753 ± 0.0068 | 0.112 ± 0.0052 |
| N83T L85A | 0.06145 ± 0.00056 | 0.0596 ± 0.0031 | 0.0602 ± 0.00076 |

| Variant | sfGFP reporter fluorescence [1] | sfGFP reporter fluorescence ([2]; ligand: 1 µM Pb) | sfGFP reporter fluorescence ([2]; ligand: 30 µM Zn) |
| --- | --- | --- | --- |
| N83T L85M | 0.0622 ± 0.0036 | 0.0669 ± 0.0024 | 0.105 ± 0.003 |
| N83T L85R | 0.061 ± 0.0026 | 0.0607 ± 0.0035 | 0.0601 ± 0.0029 |
| N83T L107C | 0.1001 ± 0.00064 | 0.518 ± 0.13 | 1.53 ± 0.15 |
| N83T L107C C114R G128M | 0.063 ± 0.0015 | 0.0605 ± 0.0029 | 0.06108 ± 0.00021 |
| N83T L107C D135A P143T | 0.1501 ± 0.0015 | 0.642 ± 0.046 | 1.85 ± 0.12 |
| N83T L107C G128I | 0.195 ± 0.0097 | 0.702 ± 0.17 | 1.75 ± 0.2 |
| N83T L107C G128M | 0.432 ± 0.012 | 1.31 ± 0.1 | 2.39 ± 0.53 |
| N83T L107C G128M D135A | 0.561 ± 0.031 | 1.15 ± 0.069 | 2.06 ± 0.28 |
| N83T L107E | 0.0668 ± 0.00076 | 0.0635 ± 0.0022 | 0.0662 ± 0.0024 |
| N83T L107F | 0.06096 ± 0.00056 | 0.059 ± 0.002 | 0.0604 ± 0.0011 |
| N83T L107Y | 0.0672 ± 0.0015 | 0.0739 ± 0.0066 | 0.0947 ± 0.0046 |
| N83T L110W | 0.0601 ± 0.0015 | 0.0593 ± 0.0024 | 0.0597 ± 0.00097 |
| N83T P143R | 0.0618 ± 0.0013 | 0.0709 ± 0.0047 | 0.145 ± 0.0075 |
| N83T P143W | 0.0657 ± 0.0018 | 0.07806 ± 0.00064 | 0.131 ± 0.0017 |
| N83T R96A | 0.0645 ± 0.00037 | 0.0756 ± 0.0031 | 0.0938 ± 0.0026 |
| N83T R111A | 0.0564 ± 0.00097 | 0.0834 ± 0.0021 | 0.341 ± 0.031 |
| N83T R111D | 0.0624 ± 0.00076 | 0.06 ± 0.0029 | 0.068 ± 0.0024 |
| N83T R111F | 0.0639 ± 0.0014 | 0.0644 ± 0.004 | 0.085 ± 0.0026 |
| N83T R111L | 0.0571 ± 0.0031 | 0.0683 ± 0.0036 | 0.167 ± 0.011 |
| N83T V108L D131C | 0.06218 ± 0.00042 | 0.0745 ± 0.0076 | 0.0858 ± 0.0057 |
| N83T V108L D131C P143T | 0.06365 ± 0.00056 | 0.0753 ± 0.002 | 0.0975 ± 0.0026 |
| N83T V108N | 0.06328 ± 0.00021 | 0.0698 ± 0.0061 | 0.132 ± 0.0091 |

| Variant | sfGFP reporter fluorescence [1] | sfGFP reporter fluorescence ([2]; ligand: 1 µM Pb) | sfGFP reporter fluorescence ([2]; ligand: 30 µM Zn) |
| --- | --- | --- | --- |
| N83V C134S | 0.0579 ± 0.00097 | 0.0667 ± 0.0035 | 0.055 ± 0.00064 |
| N83W P143A | 0.0616 ± 0.0013 | 0.0688 ± 0.0011 | 0.0621 ± 0.0015 |
| N83Y K104V | 0.0651 ± 0.0031 | 0.119 ± 0.024 | 0.0894 ± 0.0065 |
| N83Y R111A | 0.064 ± 0.00092 | 0.0721 ± 0.0067 | 0.0742 ± 0.00085 |
| N83Y R111D | 0.06194 ± 0.00037 | 0.0568 ± 0.0025 | 0.0571 ± 0.0031 |
| N83Y R111L | 0.06133 ± 0.00056 | 0.0694 ± 0.0053 | 0.0698 ± 0.0019 |
| M84A D131H | 0.0584 ± 0.0011 | 0.0712 ± 0.002 | 0.463 ± 0.061 |
| M84A G124A | 0.0619 | 0.064 ± 0.0056 | 0.143 ± 0.0022 |
| M84A I97G | 0.05986 ± 0.00042 | 0.0617 ± 0.0011 | 0.218 ± 0.017 |
| M84Q R111L | 0.0624 ± 0.0054 | 0.0651 ± 0.0026 | 0.122 ± 0.0058 |
| L85I P143M | 0.058 ± 0.0019 | 0.0691 ± 0.0018 | 0.401 ± 0.029 |
| L85Y K104V | 0.0606 ± 0.0011 | 0.0629 ± 0.0018 | 0.223 ± 0.011 |
| D87E D131C | 0.0622 ± 0.0025 | 0.0742 ± 0.0072 | 0.134 ± 0.013 |
| D87S | 0.0624 ± 0.0015 | 0.0699 ± 0.0015 | 0.162 ± 0.017 |
| I90L D131C | 0.0627 ± 0.00064 | 0.0647 ± 0.0038 | 0.122 ± 0.0066 |
| I90L D135A | 0.0614 ± 0.0011 | 0.0634 ± 0.0038 | 0.207 ± 0.0065 |
| I90L G128T D135A | 0.0632 ± 0.00092 | 0.0679 ± 0.0048 | 0.266 ± 0.031 |
| R91A K104V | 0.0657 ± 0.0027 | 0.119 ± 0.002 | 0.748 ± 0.029 |
| E94C K104V | 0.0704 ± 0.0013 | 0.072 ± 0.0039 | 0.184 ± 0.002 |
| E94D K104V | 0.0655 ± 0.0018 | 0.101 ± 0.047 | 0.352 ± 0.039 |
| E94F K104V G128H | 0.0634 ± 0.002 | 0.0647 ± 0.0031 | 0.0833 ± 0.0084 |
| E94Y P143C | 0.0629 ± 0.0031 | 0.0621 ± 0.0044 | 0.0906 ± 0.0035 |

| Variant | sfGFP reporter fluorescence [1] | sfGFP reporter fluorescence ([2]; ligand: 1 µM Pb) | sfGFP reporter fluorescence ([2]; ligand: 30 µM Zn) |
| --- | --- | --- | --- |
| R96A K104V | 0.068 ± 0.0015 | 0.0754 ± 0.0017 | 0.118 ± 0.0059 |
| R96A K104V G128M | 0.0678 ± 0.0023 | 0.0902 ± 0.0061 | 0.257 ± 0.008 |
| R96G | 0.0668 ± 0.0022 | 0.076 ± 0.004 | 0.195 ± 0.012 |
| R96Q | 0.0632 ± 0.0037 | 0.0982 ± 0.0089 | 0.455 ± 0.0056 |
| R96S | 0.0636 ± 0.0021 | 0.0924 ± 0.0049 | 0.328 ± 0.015 |
| I97A K104V | 0.0886 ± 0.0059 | 0.303 ± 0.071 | 1.11 ± 0.076 |
| I97S G128I | 0.0694 ± 0.0013 | 0.136 ± 0.023 | 0.89 ± 0.023 |
| I97S K104V | 0.0836 ± 0.0026 | 0.247 ± 0.016 | 0.825 ± 0.05 |
| L100I | 0.0611 ± 0.0014 | 0.0649 ± 0.0013 | 0.216 ± 0.019 |
| L100V G128I | 0.0908 ± 0.0036 | 0.322 ± 0.035 | 1.24 ± 0.03 |
| K104A G128M | 0.0657 ± 0.0021 | 0.109 ± 0.01 | 0.897 ± 0.013 |
| K104R C134I | 0.0715 ± 0.00073 | 0.152 ± 0.007 | 1.14 ± 0.072 |
| K104R D135A | 0.0652 ± 0.0026 | 0.0866 ± 0.004 | 0.368 ± 0.043 |
| K104V D135A | 0.0696 ± 0.0011 | 0.123 ± 0.0063 | 0.678 ± 0.073 |
| K104V G128M D135A | 0.103 ± 0.0031 | 0.291 ± 0.048 | 1.8 ± 0.11 |
| K104V L107G G128M | 0.0645 ± 0.0022 | 0.0955 ± 0.013 | 0.29 ± 0.028 |
| K104V R111A | 0.0644 ± 0.0027 | 0.096 ± 0.0033 | 0.356 ± 0.013 |
| K104V R111D | 0.0612 ± 0.0019 | 0.0619 ± 0.0015 | 0.0723 ± 0.0033 |
| K104V R111L | 0.0656 ± 0.0016 | 0.0694 ± 0.0047 | 0.0976 ± 0.0039 |
| K104V V108K | 0.109 ± 0.0044 | 0.316 ± 0.063 | 1.44 ± 0.15 |
| K104V V108R | 0.109 ± 0.0031 | 0.386 ± 0.041 | 1.52 ± 0.1 |
| H105A I125A | 0.0647 ± 0.0012 | 0.0639 ± 0.0042 | 0.0656 ± 0.0013 |
